The record followed here is paper PMC9352680, “A comprehensive thermodynamic model for RNA binding by the Saccharomyces cerevisiae Pumilio protein PUF4”.

T1: PUF4 RNA-binding domain (Saccharomyces cerevisiae, UniProt P25339 537-888)
T1 sequence: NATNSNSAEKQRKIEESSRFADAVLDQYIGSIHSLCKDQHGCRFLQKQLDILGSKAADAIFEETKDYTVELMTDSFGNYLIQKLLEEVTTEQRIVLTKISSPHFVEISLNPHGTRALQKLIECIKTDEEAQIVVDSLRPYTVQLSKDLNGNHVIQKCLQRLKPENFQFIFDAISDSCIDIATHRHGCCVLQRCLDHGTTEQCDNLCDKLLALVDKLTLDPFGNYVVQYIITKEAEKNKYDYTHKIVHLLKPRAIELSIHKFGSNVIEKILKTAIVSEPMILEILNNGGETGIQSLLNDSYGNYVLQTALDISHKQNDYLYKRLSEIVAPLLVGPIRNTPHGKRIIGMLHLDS

This series has as its target T1, PUF4 RNA-binding domain. Briefly: Mg; RNA-MaP; 20 mM Na-HEPES pH 7.4, 30 mM KOAc, 0.75 mM MgCl2, 0.1% Tween-20, 5% glycerol, 0.1 mg/mL BSA, 2 mM DTT; 25 C; 0.0125-409.6 nM protein. As to conditions: tags: N-His6-TEV cleaved; C-SNAP kept, Cy3B-labelled; label: tethered on chip by stalled RNA polymerase.
As usually defined, the Kd is the concentration at which binding is half-saturated. Read a high Kd as a looser complex. UCUCUUUGUAAUUCACUCUCUU (ssRNA) [Ic_S1_P5E.1_K5.1_C5.1_H5.1_A5.1_[T5A]_[A7T]_F5.1_[T8C]_[T9A]_[A10C]_T5.1] had a Kd of 734 nM. This counts as sub-micromolar. The molecule UCUCUUUGUACCACCGUCUCUU (ssRNA) [Ic_S1_P5E.1_K5.1_C5.1_H5.1_A5.1_[T5C]_[T6C]_F5.1_[T8C]_[T9C]_[A10G]_T5.1] yielded a Kd of 821 nM. Turning to UCUCUUUGUAGCUUACUCUCUU (ssRNA) [Ic_S1_P5E.1_K5.1_C5.1_H5.1_A5.1_[T5G]_[T6C]_[A7T]_F5.1_[T9A]_[A10C]_T5.1], the Kd worked out at 19.2 nM. Consider UCUCUUUGUACAUAGUUCUCUU (ssRNA) [Ic_S1_P5E.1_K5.1_C5.1_H5.1_A5.1_[T5C]_[T6A]_[A7T]_F5.1_[T8A]_[T9G]_[A10T]_T5.1], for which the Kd was 4.18 nM.

UCUCUUUGUACCCUUUUCUCUU (ssRNA) [Ic_S1_P5E.1_K5.1_C5.1_H5.1_A5.1_[T5C]_[T6C]_[A7C]_F5.1_[A10T]_T5.1]: the affinity, expressed as Kd, was 35.9 nM. The molecule UCUCUUUGUAUACGUUUCUCUU (ssRNA) [Ic_S1_P5E.1_K5.1_C5.1_H5.1_A5.1_[T6A]_[A7C]_F5.1_[T8G]_[A10T]_T5.1] registered a Kd of 43.4 nM.

Regarding UCUCUUUGUAACCGGUUCUCUU (ssRNA) [Ic_S1_P5E.1_K5.1_C5.1_H5.1_A5.1_[T5A]_[T6C]_[A7C]_F5.1_[T8G]_[T9G]_[A10T]_T5.1], the Kd is over 2300 nM. Under UCUCUUUGUAUGACCCUCUCUU (ssRNA) [Ic_S1_P5E.1_K5.1_C5.1_H5.1_A5.1_[T6G]_F5.1_[T8C]_[T9C]_[A10C]_T5.1] stands 2180 nM; under UCUCUUUGCGUAUAUCUCUU (ssRNA) [Ib_S1_P3E.1_K3.1_C3.1_H3.1_[T3C]_[A4G]_A3.1_F3.1_T3.1], over 2300 nM. As to UCUCUUUGUAAACCGCUCUCUU (ssRNA) [Ic_S1_P5E.1_K5.1_C5.1_H5.1_A5.1_[T5A]_[T6A]_[A7C]_F5.1_[T8C]_[T9G]_[A10C]_T5.1], the Kd came out at 625 nM. In turn, UCUCUUUGUAAUAAUGUCUCUU (ssRNA) [Ic_S1_P5E.1_K5.1_C5.1_H5.1_A5.1_[T5A]_F5.1_[T8A]_[A10G]_T5.1] had a Kd of 521 nM. Next, UCUCUUUGUACUGCACUCUCUU (ssRNA) [Ic_S1_P5E.1_K5.1_C5.1_H5.1_A5.1_[T5C]_[A7G]_F5.1_[T8C]_[T9A]_[A10C]_T5.1]: 724 nM; UCUCUUUGUAGUACCUUCUCUU (ssRNA) [Ic_S1_P5E.1_K5.1_C5.1_H5.1_A5.1_[T5G]_F5.1_[T8C]_[T9C]_[A10T]_T5.1]: over 2300 nM.

In turn, UCUCUUUGUAUCGCCAUCUCUU (ssRNA) [Ic_S1_P5E.1_K5.1_C5.1_H5.1_A5.1_[T6C]_[A7G]_F5.1_[T8C]_[T9C]_T5.1] returned a Kd of 919 nM. This lies in the sub-micromolar range. UCUCUUUGUAGCUGGUUCUCUU (ssRNA) [Ic_S1_P5E.1_K5.1_C5.1_H5.1_A5.1_[T5G]_[T6C]_[A7T]_F5.1_[T8G]_[T9G]_[A10T]_T5.1] gave a Kd of over 2300 nM.

For the molecule UCUCUUUGUACUCUACUCUCUU (ssRNA) [Ic_S1_P5E.1_K5.1_C5.1_H5.1_A5.1_[T5C]_[A7C]_F5.1_[T9A]_[A10C]_T5.1], the affinity, expressed as Kd, was 4.81 nM.

For UCUCUUUGACUAUAUCUCUU (ssRNA) [Ib_S1_P3E.1_K3.1_C3.1_H3.1_[T3A]_[A4C]_A3.1_F3.1_T3.1], the Kd was over 2300 nM. Next, UCUCUUUGUACGAAUGUCUCUU (ssRNA) [Ic_S1_P5E.1_K5.1_C5.1_H5.1_A5.1_[T5C]_[T6G]_F5.1_[T8A]_[A10G]_T5.1]: 819 nM; UCUCUUUGUAUUCGUUUCUCUU (ssRNA) [Ic_S1_P5E.1_K5.1_C5.1_H5.1_A5.1_[A7C]_F5.1_[T8G]_[A10T]_T5.1]: 378 nM; UCUCUUUGUAUUCCAAUCUCUU (ssRNA) [Ic_S1_P5E.1_K5.1_C5.1_H5.1_A5.1_[A7C]_F5.1_[T8C]_[T9A]_T5.1]: 526 nM. In turn, UCUCUUUGUACCUAGCUCUCUU (ssRNA) [Ic_S1_P5E.1_K5.1_C5.1_H5.1_A5.1_[T5C]_[T6C]_[A7T]_F5.1_[T8A]_[T9G]_[A10C]_T5.1] came in with a Kd of 114 nM. UCUCUUGGUACAUAUCUCUU (ssRNA) [Ib_S1_P3E.1_K3.1_C3.1_H3.1_[T1G]_A3.1_[T5C]_F3.1_T3.1] returned a Kd of 1550 nM. On to UCUCUUUGUAGCUUGAUCUCUU (ssRNA) [Ic_S1_P5E.1_K5.1_C5.1_H5.1_A5.1_[T5G]_[T6C]_[A7T]_F5.1_[T9G]_T5.1], for which the Kd came out at 651 nM. For UCUCUUUGUAGCUGCUUCUCUU (ssRNA) [Ic_S1_P5E.1_K5.1_C5.1_H5.1_A5.1_[T5G]_[T6C]_[A7T]_F5.1_[T8G]_[T9C]_[A10T]_T5.1], the Kd was found to be 2150 nM. In turn, UCUCUUUGUACCCCUCUCUCUU (ssRNA) [Ic_S1_P5E.1_K5.1_C5.1_H5.1_A5.1_[T5C]_[T6C]_[A7C]_F5.1_[T8C]_[A10C]_T5.1] showed a Kd of 1240 nM.

Take UCUCUUUGUACAUCCAUCUCUU (ssRNA) [Ic_S1_P5E.1_K5.1_C5.1_H5.1_A5.1_[T5C]_[T6A]_[A7T]_F5.1_[T8C]_[T9C]_T5.1]: binding was put at a Kd of 29.4 nM.

In turn, UCUCUUUGUAAUAACUUCUCUU (ssRNA) [Ic_S1_P5E.1_K5.1_C5.1_H5.1_A5.1_[T5A]_F5.1_[T8A]_[T9C]_[A10T]_T5.1] displayed a Kd of 1100 nM. Next, UCUCUUUGUACCGUCCUCUCUU (ssRNA) [Ic_S1_P5E.1_K5.1_C5.1_H5.1_A5.1_[T5C]_[T6C]_[A7G]_F5.1_[T9C]_[A10C]_T5.1]: 1540 nM. Under UCUCUUUGUAUUGGUUUCUCUU (ssRNA) [Ic_S1_P5E.1_K5.1_C5.1_H5.1_A5.1_[A7G]_F5.1_[T8G]_[A10T]_T5.1] stands 711 nM; under UCUCUUUGUACUCACGUCUCUU (ssRNA) [Ic_S1_P5E.1_K5.1_C5.1_H5.1_A5.1_[T5C]_[A7C]_F5.1_[T8A]_[T9C]_[A10G]_T5.1], 1100 nM.
